Where a chain is given by its changes, count along the chain named. Numbers in names are those of the source. Where “and” joins values, the source holds several entries; their conditions need not be identical. Equal entries are not always repeated.
B1: Mouse GLS2 (Leu72-Val602) (enzyme, UniProt Q571F8 72-602, looked up)
chain: LGDLLFYTIAEGQERIPIHKFTTALKATGLQTSDPRLQDCMSKMQRMVQESSSGGLLDRELFQKCVSSNIVLLTQAFRKKFVIPDFEEFTGHVDRIFEDAKEPTGGKVAAYIPHLAKSNPDLWGVSLCTVDGQRHSVGHTKIPFCLQSCVKPLTYAISVSTLGTDYVHKFVGKEPSGLRYNKLSLNEEGIPHNPMVNAGAIVVSSLIKMDCNKAEKFDFVLQYLNKMAGNEFMGFSNATFQSEKETGDRNYAIGYYLKEKKCFPKGVDMMAALDLYFQLCSVEVTCESGSVMAATLANGGICPITGESVLSAEAVRNTLSLMHSCGMYDFSGQFAFHVGLPAKSAVSGAILLVVPNVMGMMCLSPPLDKLGNSQRGINFCQKLVSLFNFHNYDNLRHCARKLDPRREGGEVRNKTVVNLLFAAYSGDVSALRRFALSAMDMEQKDYDSRTALHVAAAEGHIEVVKFLIEACKVNPFVKDRWGNIPLDDAVQFNHLEVVKLLQDYHDSYLLSETQAEAAAETLSKENLESMV
notes: liver-type glutaminase GLS2, mouse, residues Leu72-Val602; also called liver-type glutaminase; wild type; source: recombinant, purified
B2: Mouse GLS2 (Leu72-Val602) Lys253Ala mutant (enzyme, UniProt Q571F8 72-602, looked up)
chain: B1 chain with K182A
notes: also called K253A; source: recombinant, purified; point mutant generated by PCR (QuickChange II XL)
B3: Human GLS2 glutaminase domain (Ile154-Gly479) (domain or fragment, UniProt Q9UI32-1 154-479, looked up)
chain: IPDFEEFTGHVDRIFEDVKELTGGKVAAYIPQLAKSNPDLWGVSLCTVDGQRHSVGHTKIPFCLQSCVKPLTYAISISTLGTDYVHKFVGKEPSGLRYNKLSLNEEGIPHNPMVNAGAIVVSSLIKMDCNKAEKFDFVLQYLNKMAGNEYMGFSNATFQSEKETGDRNYAIGYYLKEKKCFPKGVDMMAALDLYFQLCSVEVTCESGSVMAATLANGGICPITGESVLSAEAVRNTLSLMHSCGMYDFSGQFAFHVGLPAKSAVSGAILLVVPNVMGMMCLSPPLDKLGNSHRGTSFCQKLVSLFNFHNYDNLRHCARKLDPRREG
notes: liver-type glutaminase GLS2, human, glutaminase (catalytic) domain, residues Ile154-Gly479, common to the LGA and GAB isoforms; Cloned into pNIC28-Bsa4; also called human GLS2 catalytic domain construct; source: E. coli BL21(DE3)-R3-pRARE2, purified (Ni-NTA, Superdex 200 gel filtration, HiTrap Q HP)

Legend:
[1] = biological target: the molecule itself; test: SEC; analytical gel filtration of serial dilutions of the protein, in the absence of phosphate; Stokes radius against protein concentration
[2] = biological target: the molecule itself; test: crystal structure; ligand-free, sitting drop at 293 K, 0.1 M Tris pH 8.5, 0.2 M NaCl, 25% PEG 3350; space group H 3 2, two monomers in the asymmetric unit, tetramer generated by crystal symmetry

Protein	stoichiometry N [1]	stoichiometry N [2]
B1	2 and 4	
B2	4	
B3		4

From article PMC8130709, “Structure and activation mechanism of the human liver-type glutaminase GLS2” (Biochimie, 2021)
